The record followed here is publication PMC11934133 (2025).

The target in test [1] is T1, Zika virus SPH2015 nonstructural protein 1 (NS1) (Zika virus (strain SPH2015)).
T1 chain: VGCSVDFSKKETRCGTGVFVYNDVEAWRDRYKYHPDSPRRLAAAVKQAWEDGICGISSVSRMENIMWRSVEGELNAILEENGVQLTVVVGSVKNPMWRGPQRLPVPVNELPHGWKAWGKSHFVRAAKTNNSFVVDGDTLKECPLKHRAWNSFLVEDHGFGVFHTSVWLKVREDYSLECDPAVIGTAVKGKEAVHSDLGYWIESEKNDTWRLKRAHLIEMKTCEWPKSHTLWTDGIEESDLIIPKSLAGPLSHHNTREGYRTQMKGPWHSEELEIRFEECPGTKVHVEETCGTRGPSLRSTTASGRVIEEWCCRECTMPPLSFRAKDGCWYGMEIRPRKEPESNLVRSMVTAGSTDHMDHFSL
The experiment in a line: BLI; NS1 immobilized, GST-VHH in solution. A general note: Biolayer interferometry detects binding as a change in optical thickness at a sensor tip.

Test [2] addresses T1, Zika virus SPH2015 nonstructural …. Nature of the test: BLI; GST-VHH immobilized, NS1 in solution.
Test [3] concerns the target Zika virus SPH2015 nonstructural protein 1 (NS1) (Zika virus (strain SPH2015)). Nature of the test: BLI.
Test [4] has as its target T1, Zika virus SPH2015 nonstructural …. Nature of the test: BLI; NS1 saturated with Nb32-Strep.
The target is the same in test [5]. Nature of the test: BLI.

B1: GST-tagged ZIKV_Nb32 (VHH)
VHH: EVQLVESGGGLVQAGGSLRLSCAVSGIDFSRYAITWNRQSPGNQRREWVATLPPADTTVYADAVKGRFTISRDNTKNTVYLQMNSLKPEDTAVYYCATSPRIHNWGQGTQVTVS
For the molecule B1, the figures for the koff in test [1] and in test [2] were 2e-05 s⁻¹ and below 1e-07 s⁻¹, respectively. In test [3], the Kd – broadly, a measure of binding affinity in units of concentration – was found to be 0.035 nM. Also, the fold increase of koff against the orientation with the nanobody immobilised in test [3] was above 100 fold.

B2: ZIKV_NbD6 with C-terminal StrepTag-II (VHH)
VHH: EVQLVESGGGSVQPGGSLRLSCAASGFAFSHYAMRWVRQAPGKGLEWVSVINSDGEDTWYADSVKGRFTISRDNAKNTLYLQMNSLKPEDTGVYYCAIGRTHDTKGQGTQVTVSS
In test [4], B2 returned a Kd of 5.9 nM. For the same molecule, the koff (in general, the first-order rate constant of dissociation) in test [5] was 0.002 s⁻¹. Also, in test [3], the Kd was 8 nM, the fold increase of koff against the GST-tagged nanobody was 26 fold and the fold increase of kon against the GST-tagged nanobody is 3.6 fold.

B3: GST-tagged ZIKV_NbD6 (VHH)
VHH: EVQLVESGGGSVQPGGSLRLSCAASGFAFSHYAMRWVRQAPGKGLEWVSVINSDGEDTWYADSVKGRFTISRDNAKNTLYLQMNSLKPEDTGVYYCAIGRTHDTKGQGTQVTVS
Turning to B3, the koff in test [1] was 7.6e-05 s⁻¹; in test [2], below 1e-07 s⁻¹.

B4: ZIKV_Nb32 with C-terminal StrepTag-II (VHH)
VHH: EVQLVESGGGLVQAGGSLRLSCAVSGIDFSRYAITWNRQSPGNQRREWVATLPPADTTVYADAVKGRFTISRDNTKNTVYLQMNSLKPEDTAVYYCATSPRIHNWGQGTQVTVSS
B4 showed a koff in test [5] of 0.00029 s⁻¹. In test [3], this molecule had a Kd of 0.16 nM, a fold increase of koff against the GST-tagged nanobody of 15 fold and a fold increase of kon against the GST-tagged nanobody of 3.2 fold.
